Laboratory results from PMC10462622.

Assays:
[1] = target: HIV-1 NL4-3 Vif N48H (residues 1-176) (HIV-1 (pNL4-3)) (UniProt P12504)
[2] = target: HIV-1 pNL4-3 Vif N48H/R93E, expressed in HEK293T (HIV-1 (pNL4-3)) (UniProt P12504)

human A3H K97Q/E70R, expressed in HEK293T (natural protein)
Vif-mediated degradation assay: resistance of A3H to Vif (+N48H), Western blot [1]: 40%

human A3H haplotype II K97Q (MBP tag cleaved) (natural protein)
Vif-mediated degradation assay: increase of the A3H level in the presence of the Vif mutant, Western blot [2]: 70%
